The values that follow are results of earlier work, collected in article PMC5028754.

The target of the series is ubiquitin (UniProt P0CG48). The experiment in a line: NMR. The settings on record: cited from earlier work.

Sequence of Ddi1 UBA (P40087 386-428): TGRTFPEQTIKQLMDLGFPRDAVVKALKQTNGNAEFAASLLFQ
Sequence of Ddi1 UBL (P40087 1-80): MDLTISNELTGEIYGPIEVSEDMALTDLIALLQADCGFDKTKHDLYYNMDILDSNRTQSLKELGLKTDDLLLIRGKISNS

As usually defined, the Kd is a measure of binding affinity in units of concentration. Ddi1 UBA (from UniProt P40087): the dissociation constant Kd is 150 µM.

Ddi1 UBL (from UniProt P40087): the Kd was 45 µM.
